The results in this text go back to the Human Domainome abundance scans (Beltran et al. 2025).

Sequences and labels used below:
B1: Ankyrin repeat and SAM domain-containing protein 6, residues 774 to 836; numbered along this chain, Q68DC2 (parent)
chain: DEDELTGILKKLSLEKYQPIFEEQEVDMEAFLTLTDGDLKELGIKTDGSRQQILAAISELNAG

± gives the uncertainty stated by the source.

In this data set the parent is B1. As to the kind of experiment: abundance fitness (aPCA) (normalised: wild type 0, dead -1); higher = more abundant; growth selection in yeast, the domain comes from the species named. Particulars: Homo sapiens.
On to DEDELTGILKKLSLEKVQPIFEEQEVDMEAFLTLTDGDLKELGIKTDGSRQQILAAISELNAG, for which the abundance fitness was -0.355 ± 0.063.
Then DEDELTGILKKLSLEKAQPIFEEQEVDMEAFLTLTDGDLKELGIKTDGSRQQILAAISELNAG, with -0.561 ± 0.064; and DEDELTGILKKLSLEKGQPIFEEQEVDMEAFLTLTDGDLKELGIKTDGSRQQILAAISELNAG, with -0.399 ± 0.054; and DEDELTGILKKLSLEKLQPIFEEQEVDMEAFLTLTDGDLKELGIKTDGSRQQILAAISELNAG, with -0.127 ± 0.05.
Then DEDELTGILKKLSLEKTQPIFEEQEVDMEAFLTLTDGDLKELGIKTDGSRQQILAAISELNAG, with -0.509 ± 0.081.
To DEDELTGILKKLSLEKCQPIFEEQEVDMEAFLTLTDGDLKELGIKTDGSRQQILAAISELNAG belongs -0.255 ± 0.096; to DEDELTGILKKLSLEKHQPIFEEQEVDMEAFLTLTDGDLKELGIKTDGSRQQILAAISELNAG, -0.505 ± 0.14.
As to DEDELTGILKKLSLEKSQPIFEEQEVDMEAFLTLTDGDLKELGIKTDGSRQQILAAISELNAG, the abundance fitness is -0.49 ± 0.059.
Then DEDELTGILKKLSLEKWQPIFEEQEVDMEAFLTLTDGDLKELGIKTDGSRQQILAAISELNAG, with -0.043 ± 0.062; and DEDELTGILKKLSLEKDQPIFEEQEVDMEAFLTLTDGDLKELGIKTDGSRQQILAAISELNAG, with -0.322 ± 0.091; and DEDELTGILKKLSLEKQQPIFEEQEVDMEAFLTLTDGDLKELGIKTDGSRQQILAAISELNAG, with -0.339 ± 0.088.
Then DEDELTGILKKLSLEKFQPIFEEQEVDMEAFLTLTDGDLKELGIKTDGSRQQILAAISELNAG, with -0.045 ± 0.039.
On to DEDELTGILKKLSLEKKQPIFEEQEVDMEAFLTLTDGDLKELGIKTDGSRQQILAAISELNAG, for which the abundance fitness was -0.426 ± 0.072.
Then DEDELTGILKKLSLEKPQPIFEEQEVDMEAFLTLTDGDLKELGIKTDGSRQQILAAISELNAG, with -0.756 ± 0.045.
To DEDELTGILKKLSLEKMQPIFEEQEVDMEAFLTLTDGDLKELGIKTDGSRQQILAAISELNAG belongs 0.031 ± 0.06.
To DEDELTGILKKLSLEKNQPIFEEQEVDMEAFLTLTDGDLKELGIKTDGSRQQILAAISELNAG belongs -0.344 ± 0.14.
Regarding DEDELTGILKKLSLEKEQPIFEEQEVDMEAFLTLTDGDLKELGIKTDGSRQQILAAISELNAG, the abundance fitness is -0.026 ± 0.068.
To DEDELTGILKKLSLWKYQPIFEEQEVDMEAFLTLTDGDLKELGIKTDGSRQQILAAISELNAG belongs -0.657 ± 0.079; to DEDELTGILKKLSLVKYQPIFEEQEVDMEAFLTLTDGDLKELGIKTDGSRQQILAAISELNAG, -0.36 ± 0.06.
Then DEDELTGILKKLSLEKYDPIFEEQEVDMEAFLTLTDGDLKELGIKTDGSRQQILAAISELNAG, with -0.344 ± 0.17; and DEDELTGILKKLSLEKYAPIFEEQEVDMEAFLTLTDGDLKELGIKTDGSRQQILAAISELNAG, with 0.07 ± 0.054.
Then DEDELTGILKKLSLEKYFPIFEEQEVDMEAFLTLTDGDLKELGIKTDGSRQQILAAISELNAG, with -0.407 ± 0.08; and DEDELTGILKKLSLEKYIPIFEEQEVDMEAFLTLTDGDLKELGIKTDGSRQQILAAISELNAG, with -0.051 ± 0.12.
DEDELTGILKKLSLEKYHPIFEEQEVDMEAFLTLTDGDLKELGIKTDGSRQQILAAISELNAG: the abundance fitness is -0.221 ± 0.17.
To DEDELTGILKKLSLEKYEPIFEEQEVDMEAFLTLTDGDLKELGIKTDGSRQQILAAISELNAG belongs -0.119 ± 0.046; to DEDELTGILKKLSLEKYCPIFEEQEVDMEAFLTLTDGDLKELGIKTDGSRQQILAAISELNAG, -0.146 ± 0.09; to DEDELTGILKKLSLEKYLPIFEEQEVDMEAFLTLTDGDLKELGIKTDGSRQQILAAISELNAG, -0.092 ± 0.052.
To DEDELTGILKKLSLEKYGPIFEEQEVDMEAFLTLTDGDLKELGIKTDGSRQQILAAISELNAG belongs -0.078 ± 0.057.
Then DEDELTGILKKLSLEKYMPIFEEQEVDMEAFLTLTDGDLKELGIKTDGSRQQILAAISELNAG, with -0.035 ± 0.068; and DEDELTGILKKLSLEIYQPIFEEQEVDMEAFLTLTDGDLKELGIKTDGSRQQILAAISELNAG, with -0.408 ± 0.18.
For the variant DEDELTGILKKLSLEQYQPIFEEQEVDMEAFLTLTDGDLKELGIKTDGSRQQILAAISELNAG, the abundance fitness was -0.253 ± 0.13.
Turning to DEDELTGILKKLSLERYQPIFEEQEVDMEAFLTLTDGDLKELGIKTDGSRQQILAAISELNAG, the abundance fitness was -0.203 ± 0.054.
Then DEDELTGILKKLSLEMYQPIFEEQEVDMEAFLTLTDGDLKELGIKTDGSRQQILAAISELNAG, with -0.084 ± 0.086; and DEDELTGILKKLSLEAYQPIFEEQEVDMEAFLTLTDGDLKELGIKTDGSRQQILAAISELNAG, with 0.074 ± 0.046.
With DEDELTGILKKLSLECYQPIFEEQEVDMEAFLTLTDGDLKELGIKTDGSRQQILAAISELNAG, the abundance fitness was -0.083 ± 0.073.
Then DEDELTGILKKLSLEPYQPIFEEQEVDMEAFLTLTDGDLKELGIKTDGSRQQILAAISELNAG, with 0.001 ± 0.066; and DEDELTGILKKLSLEFYQPIFEEQEVDMEAFLTLTDGDLKELGIKTDGSRQQILAAISELNAG, with -0.339 ± 0.14; and DEDELTGILKKLSLESYQPIFEEQEVDMEAFLTLTDGDLKELGIKTDGSRQQILAAISELNAG, with -0.103 ± 0.071.
Consider DEDELTGILKKLSLEEYQPIFEEQEVDMEAFLTLTDGDLKELGIKTDGSRQQILAAISELNAG, for which the abundance fitness turned out to be 0.175 ± 0.076.
DEDELTGILKKLSLEGYQPIFEEQEVDMEAFLTLTDGDLKELGIKTDGSRQQILAAISELNAG: the abundance fitness was -0.135 ± 0.046.
To DEDELTGILKKLSLEYYQPIFEEQEVDMEAFLTLTDGDLKELGIKTDGSRQQILAAISELNAG belongs -0.251 ± 0.066.
To DEDELTGILKKLSLEVYQPIFEEQEVDMEAFLTLTDGDLKELGIKTDGSRQQILAAISELNAG belongs -0.113 ± 0.063.
To DEDELTGILKKLSLEHYQPIFEEQEVDMEAFLTLTDGDLKELGIKTDGSRQQILAAISELNAG belongs 0.011 ± 0.19.
